Residue numbers refer to the chain shown, from its start. In names and notes the source's numbering stands.
Target: T1, His6-tagged ERK2 (Dictyostelium discoideum, UniProt Q54QB1 1-369)
T1 sequence (looked up): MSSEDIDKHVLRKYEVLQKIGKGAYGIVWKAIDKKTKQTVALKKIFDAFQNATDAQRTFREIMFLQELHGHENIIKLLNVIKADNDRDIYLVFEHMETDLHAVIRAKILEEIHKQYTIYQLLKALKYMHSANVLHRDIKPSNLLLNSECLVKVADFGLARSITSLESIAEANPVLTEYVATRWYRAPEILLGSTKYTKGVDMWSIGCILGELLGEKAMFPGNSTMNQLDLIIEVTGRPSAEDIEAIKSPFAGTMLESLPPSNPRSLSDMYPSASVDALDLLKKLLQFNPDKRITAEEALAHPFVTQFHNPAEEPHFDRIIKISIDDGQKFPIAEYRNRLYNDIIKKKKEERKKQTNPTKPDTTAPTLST
Experiment: pull-down

B1: Myc-tagged Gα4 subunit (wild type) (natural protein, Dictyostelium discoideum, UniProt P34042 1-345, looked up)
chain: MRFKCFGSEETEQSSKIDKSIETDRRKLRKDVKLLLLGPGESGKSTIFKQMKIIQEDGGYSVEELLEYRAFVYSNCISQMEALLTASAKLNIELEVENKQRAANVLRRTIGNEPWLLLAADIKHLWEDKGIKETYAQKDKHFQLNDSAAYFFDNIDRYMREDFVPNEQDVLRCRVRTTGIQESEFTFDKIRLKIVDVGGQRSQRRKWIHCFDCVTAVIFVAAMSDYDQVLREDESVNRTRESLALFKEIVNCDYFKETPIVLFLNKKDLFKEKLKRVPLQSCFSDYTGPNKYKDAAMFIQSQYLAQGPSPRTIYTHATCAVDTENIKFVFRAVRQTILSQALEHF
With B1 the “pull-down yield (percent of the cell extract)” value was roughly 22%.

B2: Myc-tagged Gα4^(R107E, R108E, Q200L) subunit (natural protein, Dictyostelium discoideum, UniProt P34042 1-345, looked up)
chain: B1 chain with R107E, R108E, Q200L
B2 was tested, and the “pull-down yield (percent of the cell extract)” value was roughly 4%.

B3: Myc-tagged Gα4^R107E,R108E subunit (altered D-motif) (natural protein, Dictyostelium discoideum, UniProt P34042 1-345, looked up)
chain: B1 chain with R107E, R108E
B3 was tested, and the “pull-down yield (percent of the cell extract)” value was roughly 9%.

B4: Myc-tagged constitutively active Gα4^Q200L subunit (natural protein, Dictyostelium discoideum, UniProt P34042 1-345, looked up)
chain: B1 chain with Q200L
B4 was tested, and the “pull-down yield (percent of the cell extract)” value was roughly 9%.

Reference: paper PMC2783421 (Developmental biology, 2009)
